The values below come from PMC4868709 (2015).

For the experiment, the target named is purified Annexin A2 (UniProt P07355 1-339). The experiment can be described thus: SPR.
Sequence of purified Annexin A2 (P07355 whole entry): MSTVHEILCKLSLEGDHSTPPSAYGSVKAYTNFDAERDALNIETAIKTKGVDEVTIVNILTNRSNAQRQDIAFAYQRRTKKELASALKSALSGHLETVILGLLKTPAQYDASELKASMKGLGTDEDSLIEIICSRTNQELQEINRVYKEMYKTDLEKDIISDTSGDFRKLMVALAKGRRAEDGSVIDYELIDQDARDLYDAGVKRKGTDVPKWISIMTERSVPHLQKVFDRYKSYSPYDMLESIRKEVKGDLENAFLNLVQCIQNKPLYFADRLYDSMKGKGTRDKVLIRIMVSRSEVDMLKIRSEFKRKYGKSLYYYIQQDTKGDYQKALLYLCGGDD

B1: purified C2 domain of CD147 (domain or fragment)
chain: AAGTVFTTVEDLGSKILLTCSLNDSATEVTGHRWLKGGVVLKEDALPGQKTEFKVDSDDQWGEYSCVFLPEPMGTANIQLHG
As for B1, the off-rate (koff) is 1.14 s⁻¹.

B2: purified I domain of CD147 (domain or fragment)
chain: PRVKAVKSSEHINEGETAMLVCKSESVPPVTDWAWYKITDSEDKALMNGSESRFFVSSSQGRSELHIENLNMEADPGQYRCNGTSSKGSDQAIIT
Molecule B2 showed a koff of 0.00307 s⁻¹. This koff lies about 370-fold lower than the previous one.

B3: purified His-tagged Ig-like domains of CD147 (CD147ECP-his) (domain or fragment)
chain: AAGTVFTTVEDLGSKILLTCSLNDSATEVTGHRWLKGGVVLKEDALPGQKTEFKVDSDDQWGEYSCVFLPEPMGTANIQLHGPPRVKAVKSSEHINEGETAMLVCKSESVPPVTDWAWYKITDSEDKALMNGSESRFFVSSSQGRSELHIENLNMEADPGQYRCNGTSSKGSDQAIITLRVRSHLAAL
In turn, B3 showed an off-rate (koff) of 1.14 s⁻¹.
